Tests used:
[1] = target: T1, full-length GR (Homo sapiens, UniProt P04150 1-777); test: fluorescence polarization; conditions: triamcinolone acetonide; Fig. 2d legend gives 35 nM; FP: 10 nM 6-FAM dsDNA, 100 mM NaCl, 20 mM Tris-HCl pH 7.4, 5% glycerol, temperature not stated; NMR: 20 mM phosphate pH 6.7, 100 mM NaCl, 1 mM TCEP, 10% D2O …
[2] = target: T2, GR DBD (Homo sapiens, UniProt P04150 417-506); test: X-ray crystallography; 2.40 A refinement; FP: 10 nM 6-FAM dsDNA, 100 mM NaCl, 20 mM Tris-HCl pH 7.4, 5% glycerol, temperature not stated; NMR: 20 mM phosphate pH 6.7, 100 mM NaCl, 1 mM TCEP, 10% D2O, 10 and 25 C (NOESY), 25 C (HSQC); conditions: protein: recombinant; tags: N-terminal 6xHis with TEV site
[3] = target: T1, full-length GR; test: fluorescence polarization; triamcinolone acetonide; FP: 10 nM 6-FAM dsDNA, 100 mM NaCl, 20 mM Tris-HCl pH 7.4, 5% glycerol, temperature not stated; NMR: 20 mM phosphate pH 6.7, 100 mM NaCl, 1 mM TCEP, 10% D2O, 10 and 25 C (NOESY), 25 C (HSQC); conditions: protein: recombinant; tags: N-terminal 6xHis; chain copies: 2; label: 5'-FAM on strand 1; blunt
[4] = target: T2, GR DBD; test: X-ray crystallography; 2.25 A; FP: 10 nM 6-FAM dsDNA, 100 mM NaCl, 20 mM Tris-HCl pH 7.4, 5% glycerol, temperature not stated; NMR: 20 mM phosphate pH 6.7, 100 mM NaCl, 1 mM TCEP, 10% D2O, 10 and 25 C (NOESY), 25 C (HSQC); conditions: protein: recombinant; tags: N-terminal 6xHis with TEV site
[5] = target: T2, GR DBD; test: X-ray crystallography; 2.20 A; FP: 10 nM 6-FAM dsDNA, 100 mM NaCl, 20 mM Tris-HCl pH 7.4, 5% glycerol, temperature not stated; NMR: 20 mM phosphate pH 6.7, 100 mM NaCl, 1 mM TCEP, 10% D2O, 10 and 25 C (NOESY), 25 C (HSQC); conditions: protein: recombinant; tags: N-terminal 6xHis with TEV site
[6] = target: T2, GR DBD; test: fluorescence polarization; two-site binding curve; Kd in Supplementary Table 5; FP: 10 nM 6-FAM dsDNA, 100 mM NaCl, 20 mM Tris-HCl pH 7.4, 5% glycerol, temperature not stated; NMR: 20 mM phosphate pH 6.7, 100 mM NaCl, 1 mM TCEP, 10% D2O, 10 and 25 C (NOESY), 25 C (HSQC); conditions: protein: recombinant, tags: N-terminal 6xHis with TEV site, blunt
[7] = target: T2, GR DBD; test: X-ray crystallography; 1.85 A; FP: 10 nM 6-FAM dsDNA, 100 mM NaCl, 20 mM Tris-HCl pH 7.4, 5% glycerol, temperature not stated; NMR: 20 mM phosphate pH 6.7, 100 mM NaCl, 1 mM TCEP, 10% D2O, 10 and 25 C (NOESY), 25 C (HSQC); conditions: protein: recombinant; tags: N-terminal 6xHis with TEV site

T2 sequence (P04150 417-506): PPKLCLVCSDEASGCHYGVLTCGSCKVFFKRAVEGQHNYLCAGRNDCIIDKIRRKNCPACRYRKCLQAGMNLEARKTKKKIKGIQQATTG
T1 sequence (P04150 whole entry): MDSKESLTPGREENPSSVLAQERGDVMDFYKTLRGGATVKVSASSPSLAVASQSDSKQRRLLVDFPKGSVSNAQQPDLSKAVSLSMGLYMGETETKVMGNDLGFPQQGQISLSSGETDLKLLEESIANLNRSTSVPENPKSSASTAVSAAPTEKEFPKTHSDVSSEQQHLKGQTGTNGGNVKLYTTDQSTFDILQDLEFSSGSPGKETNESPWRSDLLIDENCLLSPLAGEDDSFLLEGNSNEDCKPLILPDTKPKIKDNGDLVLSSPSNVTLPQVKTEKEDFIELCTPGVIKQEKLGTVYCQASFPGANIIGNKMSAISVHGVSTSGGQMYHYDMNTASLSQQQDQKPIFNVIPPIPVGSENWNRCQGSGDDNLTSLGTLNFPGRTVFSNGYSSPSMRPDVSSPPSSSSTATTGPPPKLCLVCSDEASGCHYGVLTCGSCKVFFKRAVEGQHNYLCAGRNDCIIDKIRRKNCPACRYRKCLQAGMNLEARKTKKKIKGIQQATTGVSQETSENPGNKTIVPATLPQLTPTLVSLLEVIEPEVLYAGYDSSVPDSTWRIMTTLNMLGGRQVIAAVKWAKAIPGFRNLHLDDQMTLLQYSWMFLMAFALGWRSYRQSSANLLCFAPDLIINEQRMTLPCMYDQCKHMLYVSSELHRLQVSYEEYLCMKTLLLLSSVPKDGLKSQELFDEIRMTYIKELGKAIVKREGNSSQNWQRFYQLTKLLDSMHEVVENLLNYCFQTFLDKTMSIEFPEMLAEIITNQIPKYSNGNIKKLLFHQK

Q: Which Kd [1] does the source give for SGK1 (+)GRE here?
A: The Kd was 34 nM.

B1: ICAM1 kBRE 16 bp crystal DNA (dsDNA)
DNA 1: TTGGAAATTCCGGAGC
DNA 2: GCTCCGGAATTTCCAA
Q: Does B1 bind [2]?
A: Result: binds

B2: IL8 kBRE (dsDNA)
DNA 1: AATCGTGGAATTTCCTCTG
DNA 2: CAGAGGAAATTCCACGATT
Q: How did the Kd [3] turn out when B2 was run?
A: Its Kd is 51 nM.

B3: RELB kBRE 16 bp crystal DNA (dsDNA)
DNA 1: CCGGGGAATTCCGCCG
DNA 2: CGGCGGAATTCCCCGG
Q: Does B3 bind [4]?
A: Result: binds

B4: CCL2 kBRE 16 bp crystal DNA (dsDNA)
DNA 1: AGTGGGAATTTCCACT
DNA 2: AGTGGAAATTCCCACT
Q: Does B4 bind [5]?
A: Result: binds

B5: PLAU kBRE (dsDNA)
DNA 1: CCCTGGGAATTTCCTGATA
DNA 2: TATCAGGAAATTCCCAGGG
Q: Does B5 bind ([6]; label: 5'-FAM on strand 1)?
A: Result: binds

B6: CCL2 kBRE (dsDNA)
DNA 1: GAGTGGGAATTTCCACTCA
DNA 2: TGAGTGGAAATTCCCACTC
Q: Does B6 bind [6]?
A: Result: binds

B7: IL8 kBRE 16 bp crystal DNA (dsDNA)
DNA 1: ATCGTGGAATTTCCTC
DNA 2: GAGGAAATTCCACGAT
Q: Does B7 bind [7]?
A: Result: binds

B8: PLAU kBRE 16 bp crystal DNA (dsDNA)
DNA 1: ATCAGGAAATTTCCAG
DNA 2: CTGGAAATTTCCTGAT
Q: Does B8 bind [5]?
A: Result: binds

— article PMC5889392, “Cryptic glucocorticoid receptor-binding sites pervade genomic NF-κB response elements”
